Data published in PMC2713256, “Tousled kinase TLK1B counteracts the effect of Asf1 in inhibition of histone H3–H4 tetramer formation” (BMC Research Notes, 2009).

What was measured:
[1] = biological target: T1, recombinant human TLK1B (GST-TLK1B) (human, UniProt Q9UKI8-3 1-549); assay: pull-down; GST-TLK1B (5 ug with varying amounts of Asf1, or 1 ug each with and without 10 or 100 uM ATP and 1 mM MgCl2), 10 min at room temperature, adsorbed on GSH-Sepharose; bound and unbound fractions on 10% SDS-PAGE stained with Coomassie blue; conditions: both partners purified
T1 construct: Named GST-TLK1B in the pull-downs and only TLK1B in the cross-linking reactions; also called Tousled kinase TLK1B; source: recombinant, prepared as described previously [10]
T1 sequence (looked up): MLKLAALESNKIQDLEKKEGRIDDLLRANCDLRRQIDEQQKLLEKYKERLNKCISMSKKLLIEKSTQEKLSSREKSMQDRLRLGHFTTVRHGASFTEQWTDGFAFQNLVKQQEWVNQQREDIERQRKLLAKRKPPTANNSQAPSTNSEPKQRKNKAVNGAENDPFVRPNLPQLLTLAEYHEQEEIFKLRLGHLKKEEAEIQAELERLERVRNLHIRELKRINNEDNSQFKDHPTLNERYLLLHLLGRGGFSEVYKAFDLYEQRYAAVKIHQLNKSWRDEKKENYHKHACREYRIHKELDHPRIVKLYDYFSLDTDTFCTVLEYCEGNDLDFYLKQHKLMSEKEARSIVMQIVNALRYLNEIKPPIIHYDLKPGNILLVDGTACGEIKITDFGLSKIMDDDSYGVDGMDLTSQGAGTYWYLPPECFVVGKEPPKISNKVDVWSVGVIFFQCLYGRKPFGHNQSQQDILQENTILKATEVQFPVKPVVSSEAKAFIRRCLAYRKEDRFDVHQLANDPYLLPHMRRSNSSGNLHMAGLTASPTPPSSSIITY

[2] = biological target: histone H3–H4 dimer (bovine | human) (UniProt P68432); assay: cross-linking; combinations of H3, H4, Asf1 and TLK1B in equivalent amounts, no ATP, 5 min at room temperature in 50 mM phosphate buffer pH 7.2; 3 mM formaldehyde 5 min on ice, stopped with 50 mM glycine; SDS-PAGE, blots for H3, H4, Asf1 and TLK1B

stoichiometry N [1]: 1
percent inhibition of H3–H4 tetramer formation [2]: 57%
B1: recombinant human Asf1B (natural protein, UniProt Q9NVP2 1-202, looked up)
chain: MAKVSVLNVAVLENPSPFHSPFRFEISFECSEALADDLEWKIIYVGSAESEEFDQILDSVLVGPVPAGRHMFVFQADAPNPSLIPETDAVGVTVVLITCTYHGQEFIRVGYYVNNEYLNPELRENPPMKPDFSQLQRNILASNPRVTRFHINWDNNMDRLEAIETQDPSLGCGLPLNCTPIKGLGLPGCIPGLLPENSMDCI
notes: Asf1B, histone H3-H4 chaperone, human, recombinant; source: recombinant, prepared as described previously [10]
